Measured values as given in patent US20050261190A1 (SK, published 2005).

How the values were obtained:
[1] = biological target: heat shock protein 70 inducible (Hsp70), endogenous (human, UniProt P0DMV8 2-641); assay: cell-based or functional assay
[2] = biological target: T1, heat shock protein 70 cognate (Hsc70), endogenous (human, UniProt P11142 2-646); assay: co-immunoprecipitation with anti-Flag M2 agarose from HEK293T lysate, 2D gel, MALDI-TOF MS (table of Flag-hFAF1 binding proteins)
T1 construct: In the 1D western blots it is detected together with Hsp70 by one anti-Hsc70/Hsp70 monoclonal antibody; statements on 'Hsc70/Hsp70' are written once for each of the two; also called member of Hsc70/Hsp70
T1 sequence (P11142 2-646 limits assumed): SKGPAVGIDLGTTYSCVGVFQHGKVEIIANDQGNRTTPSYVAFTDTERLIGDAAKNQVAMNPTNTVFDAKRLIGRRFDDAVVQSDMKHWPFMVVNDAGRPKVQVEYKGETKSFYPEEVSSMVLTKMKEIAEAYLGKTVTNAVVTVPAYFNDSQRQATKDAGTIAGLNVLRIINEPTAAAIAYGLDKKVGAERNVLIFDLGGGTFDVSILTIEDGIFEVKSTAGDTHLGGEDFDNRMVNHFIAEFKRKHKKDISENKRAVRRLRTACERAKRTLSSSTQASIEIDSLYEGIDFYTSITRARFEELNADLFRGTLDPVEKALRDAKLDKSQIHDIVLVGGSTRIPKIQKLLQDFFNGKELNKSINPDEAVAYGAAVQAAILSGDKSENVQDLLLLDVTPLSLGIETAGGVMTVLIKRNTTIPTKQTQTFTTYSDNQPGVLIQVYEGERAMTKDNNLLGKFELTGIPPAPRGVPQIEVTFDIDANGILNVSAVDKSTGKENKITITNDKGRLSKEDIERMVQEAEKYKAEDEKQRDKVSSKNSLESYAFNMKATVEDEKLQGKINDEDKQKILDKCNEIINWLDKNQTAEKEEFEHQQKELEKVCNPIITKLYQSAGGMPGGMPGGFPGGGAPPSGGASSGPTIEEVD
Source text: Protein spots detected in the autoradiogram were cut out from the corresponding silver stained gel and subjected to in-gel digestion with trypsin and mass peptide fingerprint analyses using MALDI-TOF MS.

bacterial Hsp70, DnaK = bacterial Hsp70, DnaK (E. coli, UniProt P0A6Y8 2-638); assay: not told (data not shown)
bacterial Hsp70, DnaK, sequence (P0A6Y8 2-638 limits assumed): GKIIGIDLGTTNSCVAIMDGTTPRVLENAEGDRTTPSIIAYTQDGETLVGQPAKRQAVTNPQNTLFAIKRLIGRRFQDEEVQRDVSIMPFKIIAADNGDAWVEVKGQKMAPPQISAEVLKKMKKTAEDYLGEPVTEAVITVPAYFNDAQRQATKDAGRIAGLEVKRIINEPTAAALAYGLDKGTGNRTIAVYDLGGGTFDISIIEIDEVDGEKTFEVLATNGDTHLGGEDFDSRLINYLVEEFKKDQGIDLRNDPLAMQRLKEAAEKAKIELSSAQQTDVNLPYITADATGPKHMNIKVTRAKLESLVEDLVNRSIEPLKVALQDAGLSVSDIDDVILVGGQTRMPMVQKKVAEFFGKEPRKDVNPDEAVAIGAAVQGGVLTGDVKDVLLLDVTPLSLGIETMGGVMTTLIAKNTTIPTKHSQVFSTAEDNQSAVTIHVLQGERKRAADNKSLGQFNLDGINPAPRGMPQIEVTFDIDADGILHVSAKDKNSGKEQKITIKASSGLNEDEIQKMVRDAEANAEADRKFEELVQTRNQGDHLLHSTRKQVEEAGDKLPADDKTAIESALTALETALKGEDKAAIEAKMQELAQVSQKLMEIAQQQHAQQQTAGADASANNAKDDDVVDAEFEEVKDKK

[3] = biological target: T2, polyubiquitin chains (Ub2-7), synthetic Lys48-linked (UniProt P0CG47 1-76, units linked by Lys48 isopeptide bonds); assay: GST pull-down, immunoblot with anti-ubiquitin
T2 construct: A mixture of chains of 2 to 7 ubiquitin units; also called multiubiquitin chains

heat shock protein 70 inducible (Hsp70), endogenous, sequence (P0DMV8 2-641): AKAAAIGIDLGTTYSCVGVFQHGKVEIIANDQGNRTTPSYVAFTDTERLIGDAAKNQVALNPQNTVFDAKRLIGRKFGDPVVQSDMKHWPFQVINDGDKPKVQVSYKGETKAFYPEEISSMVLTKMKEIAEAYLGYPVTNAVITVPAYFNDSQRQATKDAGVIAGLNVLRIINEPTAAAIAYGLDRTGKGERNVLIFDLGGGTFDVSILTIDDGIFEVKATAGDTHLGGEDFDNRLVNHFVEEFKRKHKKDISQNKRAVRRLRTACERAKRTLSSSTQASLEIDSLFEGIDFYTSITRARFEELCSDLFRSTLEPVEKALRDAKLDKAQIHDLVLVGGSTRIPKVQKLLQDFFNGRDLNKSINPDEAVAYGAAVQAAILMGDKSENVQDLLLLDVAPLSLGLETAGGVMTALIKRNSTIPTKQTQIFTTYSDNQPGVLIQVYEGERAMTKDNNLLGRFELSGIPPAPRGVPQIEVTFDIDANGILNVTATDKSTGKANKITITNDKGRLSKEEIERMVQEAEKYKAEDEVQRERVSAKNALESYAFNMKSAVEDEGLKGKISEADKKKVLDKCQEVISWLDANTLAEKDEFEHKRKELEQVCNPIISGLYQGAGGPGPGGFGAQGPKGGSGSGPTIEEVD

B1: Flag-tagged hFAF1 (human Fas associated factor 1, full form) (other)
chain: MASNMDREMILADFQACTGIENIDEAITLLEQNNWDLVAAINGVIPQENGILQSEYGGETIPGPAFNPASHPASAPTSSSSSAFRPVMPSRQIVERQPRMLDFRVEYRDRNVDVVLEDTCTVGEIKQILENELQIPVSKMLLKGWKTGDVEDSTVLKSLHLPKNNSLYVLTPDLPPPSSSSHAGALQESLNQNFMLIITHREVQREYNLNFSGSSTIQEVKRNVYDLTSIPVRHQLWEGWPTSATDDSMCLAESGLSYPCHRLTVGRRSSPAQTREQSEEQITDVHMVSDSDGDDFEDATEFGVDDGEVFGMASSALRKSPMMPENAENEGDALLQFTAEFSSRYGDCHPVFFIGSLEAAFQEAFYVKARDRKLLAIYLHHDESVLTNVFCSQMLCAESIVSYLSQNFITWAWDLTKDSNRARFLTMCNRHFGSVVAQTIRTQKTDQKPLFLIIMGKRSSNEVLNVIQGNTTVDELMMRLMAAMEIFTAQQQEDIKDGDEREARENVKREQDEAYRLSLEADRAKREAREREMAEQFRLEQIRKEQEEEREAIRLSLEQALPPEPKEENAEPVSKLRIRTPSGEFLERRFLASNKLQIVFDFVASKGFPWDEYKLLSTFPRRDVTQLDPNKSLLEVKLFPQETLFLEAKE
notes: Transiently overexpressed in HEK293T cells and pulled out of the lysate with anti-Flag M2 agarose; also called Flag-hFAF1; pFlag-CMV-2/hFAF1; not shown: Flag tag from the pFlag-CMV-2 vector
[1]
  SAPK/JNK activity after heat shock: 16 fold
[2]
  binding result: binds

B2: Flag-hFAF1[366-650] (other, not shown: small tags and cut ends)
chain: YVKARDRKLLAIYLHHDESVLTNVFCSQMLCAESIVSYLSQNFITWAWDLTKDSNRARFLTMCNRHFGSVVAQTIRTQKTDQKPLFLIIMGKRSSNEVLNVIQGNTTVDELMMRLMAAMEIFTAQQQEDIKDGDEREARENVKREQDEAYRLSLEADRAKREAREREMAEQFRLEQIRKEQEEEREAIRLSLEQALPPEPKEENAEPVSKLRIRTPSGEFLERRFLASNKLQIVFDFVASKGFPWDEYKLLSTFPRRDVTQLDPNKSLLEVKLFPQETLFLEAKE
[1]
  SAPK/JNK activity after heat shock: 13 fold

B3: purified recombinant hFAF1 (other)
chain: MASNMDREMILADFQACTGIENIDEAITLLEQNNWDLVAAINGVIPQENGILQSEYGGETIPGPAFNPASHPASAPTSSSSSAFRPVMPSRQIVERQPRMLDFRVEYRDRNVDVVLEDTCTVGEIKQILENELQIPVSKMLLKGWKTGDVEDSTVLKSLHLPKNNSLYVLTPDLPPPSSSSHAGALQESLNQNFMLIITHREVQREYNLNFSGSSTIQEVKRNVYDLTSIPVRHQLWEGWPTSATDDSMCLAESGLSYPCHRLTVGRRSSPAQTREQSEEQITDVHMVSDSDGDDFEDATEFGVDDGEVFGMASSALRKSPMMPENAENEGDALLQFTAEFSSRYGDCHPVFFIGSLEAAFQEAFYVKARDRKLLAIYLHHDESVLTNVFCSQMLCAESIVSYLSQNFITWAWDLTKDSNRARFLTMCNRHFGSVVAQTIRTQKTDQKPLFLIIMGKRSSNEVLNVIQGNTTVDELMMRLMAAMEIFTAQQQEDIKDGDEREARENVKREQDEAYRLSLEADRAKREAREREMAEQFRLEQIRKEQEEEREAIRLSLEQALPPEPKEENAEPVSKLRIRTPSGEFLERRFLASNKLQIVFDFVASKGFPWDEYKLLSTFPRRDVTQLDPNKSLLEVKLFPQETLFLEAKE
notes: also called hFAF1 cleaved by thrombin from GST-hFAF1
Bacterial Hsp70, DnaK
  binding result: binds

B4: GST-hFAF1[82-650] (other)
chain: SAFRPVMPSRQIVERQPRMLDFRVEYRDRNVDVVLEDTCTVGEIKQILENELQIPVSKMLLKGWKTGDVEDSTVLKSLHLPKNNSLYVLTPDLPPPSSSSHAGALQESLNQNFMLIITHREVQREYNLNFSGSSTIQEVKRNVYDLTSIPVRHQLWEGWPTSATDDSMCLAESGLSYPCHRLTVGRRSSPAQTREQSEEQITDVHMVSDSDGDDFEDATEFGVDDGEVFGMASSALRKSPMMPENAENEGDALLQFTAEFSSRYGDCHPVFFIGSLEAAFQEAFYVKARDRKLLAIYLHHDESVLTNVFCSQMLCAESIVSYLSQNFITWAWDLTKDSNRARFLTMCNRHFGSVVAQTIRTQKTDQKPLFLIIMGKRSSNEVLNVIQGNTTVDELMMRLMAAMEIFTAQQQEDIKDGDEREARENVKREQDEAYRLSLEADRAKREAREREMAEQFRLEQIRKEQEEEREAIRLSLEQALPPEPKEENAEPVSKLRIRTPSGEFLERRFLASNKLQIVFDFVASKGFPWDEYKLLSTFPRRDVTQLDPNKSLLEVKLFPQETLFLEAKE
notes: Immobilized on glutathione sepharose; also called amino acid 82-650; not shown: glutathione S-transferase (GST) tag
[3]
  binding result: no binding
